According to article doi:10.1101/2024.12.13.628402 (bioRxiv, 2024):

Molecular target: T1, His6-YidC (E. coli, UniProt P25714 1-548)
T1 sequence (looked up): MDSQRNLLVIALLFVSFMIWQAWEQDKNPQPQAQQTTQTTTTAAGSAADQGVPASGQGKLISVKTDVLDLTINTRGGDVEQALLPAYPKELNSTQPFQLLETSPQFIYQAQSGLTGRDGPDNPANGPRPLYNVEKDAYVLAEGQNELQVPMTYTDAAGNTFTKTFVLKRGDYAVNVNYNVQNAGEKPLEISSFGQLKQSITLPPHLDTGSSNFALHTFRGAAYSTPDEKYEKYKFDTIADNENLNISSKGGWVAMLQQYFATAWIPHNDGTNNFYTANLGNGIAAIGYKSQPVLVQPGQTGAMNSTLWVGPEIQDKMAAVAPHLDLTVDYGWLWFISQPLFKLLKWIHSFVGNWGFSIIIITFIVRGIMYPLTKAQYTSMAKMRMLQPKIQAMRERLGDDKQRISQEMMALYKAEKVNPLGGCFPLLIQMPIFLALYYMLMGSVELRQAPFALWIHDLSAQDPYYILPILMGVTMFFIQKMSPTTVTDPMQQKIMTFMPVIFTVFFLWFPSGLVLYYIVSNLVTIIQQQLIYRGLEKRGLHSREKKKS
Assay: native gel or EMSA

- binding result: binds
B1: YibN-His6 (natural protein, E. coli, UniProt P0AG27 1-143, looked up)
chain: MQEIMQFVGRHPILSIAWIALLVAVLVTTFKSLTSKVKVITRGEATRLINKEDAVVVDLRQRDDFRKGHIAGSINLLPSEIKANNVGELEKHKDKPVIVVDGSGMQCQEPANALTKAGFAQVFVLKEGVAGWAGENLPLVRGK
